The chains are these.
B1: QMLELITRL (peptide)
peptide: QMLELITRL
notes: gene: DICER1
B2: ALWDEFNQL (peptide)
peptide: ALWDEFNQL
notes: gene: TBX1
B3: ILSAILVHL (peptide)
peptide: ILSAILVHL
notes: gene: MROH2A
B4: YMLDIFHEVL (peptide)
peptide: YMLDIFHEVL
notes: gene: HAS3
B5: SLDEKQNLV (peptide)
peptide: SLDEKQNLV
notes: gene: METTL8
B6: FLIDASQRV (peptide)
peptide: FLIDASQRV
notes: gene: COL6A5
B7: SLATTLTKI (peptide)
peptide: SLATTLTKI
notes: gene: COPB1
B8: ILDISRSEV (peptide)
peptide: ILDISRSEV
notes: gene: GPR107
B9: TLFPSKIGV (peptide)
peptide: TLFPSKIGV
notes: genes: MOB1A, MOB1B
B10: GLAQDPKSLQL (peptide)
peptide: GLAQDPKSLQL
notes: gene: TTC28
B11: ILGPQGNTI (peptide)
peptide: ILGPQGNTI
notes: gene: KHDRBS1
B12: LLDVTPKAV (peptide)
peptide: LLDVTPKAV
notes: gene: TJP2
B13: VLMDDTDPLV (peptide)
peptide: VLMDDTDPLV
notes: gene: PSMC1
B14: YLAGEAPTL (peptide)
peptide: YLAGEAPTL
notes: gene: VARS
B15: LLYPTEITV (peptide)
peptide: LLYPTEITV
notes: gene: ITGA3
B16: QLQGYLRSV (peptide)
peptide: QLQGYLRSV
notes: gene: RPL6
B17: YLDPSLNSL (peptide)
peptide: YLDPSLNSL
notes: gene: CXorf57
B18: RLSQLEGVNV (peptide)
peptide: RLSQLEGVNV
notes: gene as printed: VP535
B19: ALYPGQLVQL (peptide)
peptide: ALYPGQLVQL
notes: gene: ARHGAP9
B20: ALLDEQQVNV (peptide)
peptide: ALLDEQQVNV
notes: gene: ID1
B21: TLTSIIVAV (peptide)
peptide: TLTSIIVAV
notes: gene: MROH2A
B22: AMASHLTST (peptide)
peptide: AMASHLTST
notes: gene: RBM4
B23: YLAPENGYLMEA (peptide)
peptide: YLAPENGYLMEA
notes: gene: SNRNP70
B24: YLTNEGIQYL (peptide)
peptide: YLTNEGIQYL
notes: genes: RPS10-NUDT3, RPS10
B25: IVAPGTFEV (peptide)
peptide: IVAPGTFEV
notes: gene: ILF2
B26: TLIEDDALNGA (peptide)
peptide: TLIEDDALNGA
notes: gene: HPGD
B27: FLLPLIIVL (peptide)
peptide: FLLPLIIVL
notes: gene: MR1
B28: SLIGGTNFV (peptide)
peptide: SLIGGTNFV
notes: gene: AP1B1
B29: KLNATNIEL (peptide)
peptide: KLNATNIEL
notes: gene: PSMA5
B30: IITKDLFQV (peptide)
peptide: IITKDLFQV
notes: gene: DYNC1H1
B31: VLANRVAVV (peptide)
peptide: VLANRVAVV
notes: gene: DHRS2
B32: SLATLEGIQL (peptide)
peptide: SLATLEGIQL
notes: gene: ZNF236
B33: GLLKAYSIRTA (peptide)
peptide: GLLKAYSIRTA
notes: gene: KRT7
B34: QIDGTLSTI (peptide)
peptide: QIDGTLSTI
notes: genes: FBXO34, CHMP4C, CHMP4B, CHMP4BP1
B35: ALSSPPPTV (peptide)
peptide: ALSSPPPTV
notes: gene: ZFYVE9
B36: FLEEKEQAAL (peptide)
peptide: FLEEKEQAAL
notes: genes: TRIM16, CDRT1, TRIM16L
B37: VLFGEITRL (peptide)
peptide: VLFGEITRL
notes: gene: NDUFS2
B38: VIADRVVTV (peptide)
peptide: VIADRVVTV
notes: gene: VWA5B1
B39: RLLDFPTLLV (peptide)
peptide: RLLDFPTLLV
notes: gene: MAP10
B40: ILLRDLPTL (peptide)
peptide: ILLRDLPTL
notes: gene: FAM174B
B41: SLDSSGFSL (peptide)
peptide: SLDSSGFSL
notes: gene: PARP4
B42: SLLDFERSL (peptide)
peptide: SLLDFERSL
notes: gene: HPS3
B43: YQAPDIDVQL (peptide)
peptide: YQAPDIDVQL
notes: gene: GLTSCR2
B44: GLSEPIFQL (peptide)
peptide: GLSEPIFQL
notes: gene: MFN1
B45: GLAGPVRGV (peptide)
peptide: GLAGPVRGV
notes: genes: SNURF, SNRPB, SNRPN
B46: VLMDDTDPL (peptide)
peptide: VLMDDTDPL
notes: gene: PSMC1
B47: ILLDTPLFL (peptide)
peptide: ILLDTPLFL
notes: gene: SERHL2
B48: RLIDDMVAQA (peptide)
peptide: RLIDDMVAQA
notes: gene: IDH1
B49: IIIPEIQKV (peptide)
peptide: IIIPEIQKV
notes: gene: CSE1L
B50: QLAWFDTDL (peptide)
peptide: QLAWFDTDL
notes: gene: CTNNB1
B51: TLVTGLASV (peptide)
peptide: TLVTGLASV
notes: gene: MFN1
B52: YLDPNQRDL (peptide)
peptide: YLDPNQRDL
notes: gene: ZNF573
B53: VLFNIDGQGNHV (peptide)
peptide: VLFNIDGQGNHV
notes: gene: GATA3
B54: ILVQVIPVV (peptide)
peptide: ILVQVIPVV
notes: gene: IRF6
B55: GQLDFSEFL (peptide)
peptide: GQLDFSEFL
notes: gene: S100A11
B56: KLPEPPPLA (peptide)
peptide: KLPEPPPLA
notes: gene: ERV3-1
B57: YLEPKLTQV (peptide)
peptide: YLEPKLTQV
notes: gene: PSME4
B58: ALNDEINFL (peptide)
peptide: ALNDEINFL
notes: gene: KRT7
B59: FLGENISNFL (peptide)
peptide: FLGENISNFL
notes: gene: APOL1
B60: GLDSSVNVQGSVL (peptide)
peptide: GLDSSVNVQGSVL
notes: gene: WTAP
B61: STTNGGILTV (peptide)
peptide: STTNGGILTV
notes: gene: FYTTD1

The target of the assay is T1, HLA-A*02:01 (human).
T1 construct: MHC monomer first loaded with a UV-sensitive peptide, which is cleaved by UV and exchanged with the test peptide; captured on streptavidin plates; also called peptide-receptive MHC molecules
The assay can be described thus: UV-ligand exchange + anti-b2m ELISA; +++ = peptide exchange yield >50. The text has this: Candidate peptides for T cell based therapies according to the present invention were further tested for their MHC binding capacity (affinity). The individual peptide-MHC complexes were produced by UV-ligand exchange, where a UV-sensitive peptide is cleaved upon UV-irradiation, and exchanged with the peptide of interest as analyzed. Only peptide candidates that can effectively bind and stabilize the peptide-receptive MHC molecules prevent dissociation of the MHC complexes. To determine the yield of the exchange reaction, an ELISA was performed based on the detection of the light chain (β2m) of stabilized MHC complexes. The assay was performed as generally described in Rodenko et al. (Rodenko et al., 2006).
96 well MAXISorp plates (NUNC) were coated over night with 2 ug/ml streptavidin in PBS at room temperature, washed 4× and blocked forth at 37° C. in 2% BSA containing blocking buffer. Refolded HLA-A*02:01/MLA-001 monomers served as standards, covering the range of 15-500 ng/ml. Peptide-MHC monomers of the UV-exchange reaction were diluted 100 fold in blocking buffer. Samples were incubated for 1 h at 37° C., washed four times, incubated with 2 ug/ml HRP conjugated anti-β2m for 1 h at 37° C., washed again and detected with TMB solution that is stopped with […]. Absorption was measured at 450 nm. Candidate peptides that show a high exchange yield (preferably higher than 50%, most preferred higher than 75%) are generally preferred for a generation and production of antibodies or fragments thereof, and/or T cell receptors or fragments thereof, as they show sufficient avidity to the MHC molecules and prevent dissociation of the MHC complexes.
Take B1: the peptide exchange yield is 50 to 75%.
On to B2, for which the peptide exchange yield lay in the range of 50 to 75%.
The result for B3 reads 50 to 75%; that for B4, 50 to 75%.
The value for B5 was 50 to 75%; that for B6 was 50 to 75%.
The result for B7 reads 50 to 75%.
B8: the peptide exchange yield fell in the range of 50 to 75%.
The result for B9 reads 50 to 75%; that for B10, 50 to 75%; that for B11, 50 to 75%.
The result for B12 reads 50 to 75%; that for B13, 50 to 75%; that for B14, 50 to 75%.
On to B15, for which the peptide exchange yield was in the range of 50 to 75%.
The result for B16 reads 50 to 75%.
The result for B17 reads 50 to 75%; that for B18, 50 to 75%; that for B19, 50 to 75%.
For B20, the peptide exchange yield was in the range of 50 to 75%.
In the case of B21, the peptide exchange yield is 50 to 75%.
Take B22: the peptide exchange yield lay within 50 to 75%.
The result for B23 reads 50 to 75%; that for B24, 50 to 75%.
The value for B25 was 50 to 75%; that for B26 was 50 to 75%; that for B27 was 50 to 75%.
The value for B28 was 50 to 75%.
As for B29, the peptide exchange yield is 50 to 75%.
The result for B30 reads 50 to 75%.
On to B31, for which the peptide exchange yield fell in the range of 50 to 75%.
The result for B32 reads 50 to 75%.
The result for B33 reads 50 to 75%; that for B34, 50 to 75%; that for B35, 50 to 75%.
The value for B36 was 50 to 75%; that for B37 was 50 to 75%; that for B38 was 50 to 75%.
On to B39, for which the peptide exchange yield lay in the range of 50 to 75%.
The value for B40 was 50 to 75%; that for B41 was 50 to 75%; that for B42 was 50 to 75%.
For the molecule B43, the peptide exchange yield lay in the range of 50 to 75%.
The value for B44 was 50 to 75%.
The result for B45 reads 50 to 75%; that for B46, 50 to 75%; that for B47, 50 to 75%.
The value for B48 was 50 to 75%; that for B49 was 50 to 75%.
Turning to B50, the peptide exchange yield lay in the range of 50 to 75%.
With B51, the peptide exchange yield lay in the range of 50 to 75%.
The value for B52 was 50 to 75%.
The result for B53 reads 50 to 75%; that for B54, 50 to 75%.
The result for B55 reads 50 to 75%; that for B56, 50 to 75%.
As for B57, the peptide exchange yield lay in the range of 50 to 75%.
The value for B58 was 50 to 75%.
The result for B59 reads 50 to 75%; that for B60, 50 to 75%.
The result for B61 reads 50 to 75%.

The values are drawn from patent US20170253633A1 (IMMATICS BIOTECHNOLOGIES, published 2017).
